Data from US12492490 (University of California, dated 2025).

B1: HCA-S1 (antibody, V domains shown)
VH: QVQLQESGGGLVQPGGSLRLSCAASGFTFSSYAMHWVRQAPGKGLEWVAVISYDGSNKYYADSVKGRFTISRDNSKNTLYLQMNSLRAEDTAVYYCARFSSGWYYFDYWGQGTLVTVSS
VL: DIQMTQSPSFLSASVGDRITITCRASHDISSYFAWYQQKPGKAPKPLIYAASTLQSGVPSRFSGSGSGTEFTLTISSLQPEDFATYYCQQLGSYPLTFGGGTKLEIK
notes: also called IgG HCA-S1
B2: HCA-M1 (antibody, V domains shown)
VH: QVQLVESGGGVVQPGRSLRLSCAASGFTFSSYAMHWVRQAPGKGLEWVAVISYDGSNKYYADSVKGRFTISRDNSKNTLYLQMNSLRAEDTAVYYCARAPAYSYGPFDYWGQGTLVTVSS
VL: SSELTQDPAVSVALGQTVRITCQGDSLRSYYASWYQQKPGQAPVLVIYGKNNRPSGIPDRFSGSSSGNTASLTITGAQAEDEADYYCHSRDSSGTHLRVFGGGTKVTVL
notes: also called IgG HCA-M1

Target: T1, human ephrin type-A receptor 2 (EphA2) (human, UniProt P29317 24-976)
T1 construct: whole, on cells; also called NP_004422
T1 sequence (P29317 24-976): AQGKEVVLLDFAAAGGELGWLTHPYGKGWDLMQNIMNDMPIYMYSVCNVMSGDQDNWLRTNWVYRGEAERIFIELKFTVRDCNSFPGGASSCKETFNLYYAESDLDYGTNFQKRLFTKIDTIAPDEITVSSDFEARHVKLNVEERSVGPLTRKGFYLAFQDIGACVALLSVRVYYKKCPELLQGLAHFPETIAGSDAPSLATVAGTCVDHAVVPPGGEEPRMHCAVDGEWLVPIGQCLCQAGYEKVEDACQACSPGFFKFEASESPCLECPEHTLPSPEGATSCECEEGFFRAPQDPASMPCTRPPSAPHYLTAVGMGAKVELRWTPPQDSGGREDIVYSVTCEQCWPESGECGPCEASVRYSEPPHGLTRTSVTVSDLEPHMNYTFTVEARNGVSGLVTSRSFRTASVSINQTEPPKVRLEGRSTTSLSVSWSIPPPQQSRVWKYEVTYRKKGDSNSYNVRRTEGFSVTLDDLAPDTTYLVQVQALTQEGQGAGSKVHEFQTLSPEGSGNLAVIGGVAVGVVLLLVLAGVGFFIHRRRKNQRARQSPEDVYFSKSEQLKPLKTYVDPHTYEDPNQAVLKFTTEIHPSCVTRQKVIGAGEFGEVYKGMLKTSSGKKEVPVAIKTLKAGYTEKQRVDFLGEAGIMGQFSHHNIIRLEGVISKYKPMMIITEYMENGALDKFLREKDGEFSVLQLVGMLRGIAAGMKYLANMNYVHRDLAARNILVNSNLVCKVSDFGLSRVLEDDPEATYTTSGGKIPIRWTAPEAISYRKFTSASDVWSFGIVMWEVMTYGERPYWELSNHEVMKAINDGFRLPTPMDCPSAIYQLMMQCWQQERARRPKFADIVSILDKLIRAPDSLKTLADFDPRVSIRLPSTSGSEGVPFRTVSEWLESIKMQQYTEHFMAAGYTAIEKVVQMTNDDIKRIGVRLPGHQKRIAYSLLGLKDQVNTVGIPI
Test: not described

Binder | binding result
B1 | no binding
B2 | no binding
